The data set “SDS-PAGE” concerns the molecule itself. The data set is described as follows: SDS-PAGE.
The data set “SEC” deals with the molecule itself. The data set is described as follows: SEC.
Another data set has as its target T1, YdaT (Rac prophage) (Escherichia coli K-12 MG1655 (Rac …, UniProt P76064 1-140)).
T1 sequence: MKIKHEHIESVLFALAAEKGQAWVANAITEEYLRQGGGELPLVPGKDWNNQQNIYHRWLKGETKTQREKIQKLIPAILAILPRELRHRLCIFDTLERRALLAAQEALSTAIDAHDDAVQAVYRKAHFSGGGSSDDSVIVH
The data set is described as follows: DNase I footprinting.

In another data set the target is T2, YdaTmut (H56A R57A) (Escherichia coli K-12 MG1655 (Rac …, UniProt P76064 1-140, H56A;R57A)).
T2 sequence: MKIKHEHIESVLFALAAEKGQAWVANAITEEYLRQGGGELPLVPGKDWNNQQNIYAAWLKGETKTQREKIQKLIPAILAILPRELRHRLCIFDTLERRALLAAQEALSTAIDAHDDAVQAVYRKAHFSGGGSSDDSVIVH
The data set is described as follows: DNase I footprinting.

B1: N-terminally 6x His-tagged YdaT, wild type (Rac prophage transcription factor) (natural protein, E. coli K-12 (Rac prophage), UniProt P76064 1-140, looked up)
chain: MKIKHEHIESVLFALAAEKGQAWVANAITEEYLRQGGGELPLVPGKDWNNQQNIYHRWLKGETKTQREKIQKLIPAILAILPRELRHRLCIFDTLERRALLAAQEALSTAIDAHDDAVQAVYRKAHFSGGGSSDDSVIVH
Consider B1, for which the “stoichiometry N” value came out at 2 in the data set “SDS-PAGE” and 4 in “SEC”.

B2: IGR footprint substrate (165 bp) (dsDNA)
DNA 1: GCGCATTACATTAGGCAATCCCTACCCTTACTGCATTAGGCACAGCCTATTGACAATTGCGTTAGGCGTCGCCTAATATTTCTGTGTGTTTTTGGAGTTCATTCGATGAAAAAAGAGAACTATTCATTCAAGCAAGCTTGTGCTGTTGTCGGTGGGCAATCAGCA
DNA 2: TGCTGATTGCCCACCGACAACAGCACAAGCTTGCTTGAATGAATAGTTCTCTTTTTTCATCGAATGAACTCCAAAAACACACAGAAATATTAGGCGACGCCTAACGCAATTGTCAATAGGCTGTGCCTAATGCAGTAAGGGTAGGGATTGCCTAATGTAATGCGC
On to B2, for which the results for the binding result in the data set with YdaT (Rac prophage) and in the data set with YdaTmut (H56A R57A) were “binds” and “no binding”, respectively.

Source of the values: PMC11879457 (Nucleic Acids Research, 2025).
